Measured values from paper PMC6794372.

Assays:
[1] = target: PRA, recombinant C-terminal domain of MYH9, His-SUMO tag removed; test: negative-stain electron microscopy; purified PRA (5 mM) for 1 h at 4°C in 50 mM Tris, 150 mM NaCl, 10% glycerol, 3 mM CaCl2; supernatant after centrifugation, 1% uranyl acetate
[2] = target: PRA, recombinant C-terminal domain of MYH9, His-SUMO tag removed; test: non-reducing SDS-PAGE and Western blot; PRA (5 mM) alone or pre-incubated with S100A4 (10 mM, 3 mM CaCl2) at 4°C for 1 h; without DTT; blot with anti-MYH9 pAb

- stoichiometry N [1]: 2
- stoichiometry N [2]: 2
Substance: PRA, recombinant C-terminal domain of MYH9, His-SUMO tag removed (domain or fragment)
